Measurements as given in publication PMC12397908, “Cryo-EM structures of the MnmE–MnmG complex reveal large conformational changes and provide new insights into the mechanism of tRNA modification” (Nucleic Acids Research, 2025).

B1: Escherichia coli MnmE (wild type) (enzyme, E. coli, UniProt P25522 1-454, looked up)
chain: MSDNDTIVAQATPPGRGGVGILRISGFKAREVAETVLGKLPKPRYADYLPFKDADGSVLDQGIALWFPGPNSFTGEDVLELQGHGGPVILDLLLKRILTIPGLRIARPGEFSERAFLNDKLDLAQAEAIADLIDASSEQAARSALNSLQGAFSARVNHLVEALTHLRIYVEAAIDFPDEEIDFLSDGKIEAQLNDVIADLDAVRAEARQGSLLREGMKVVIAGRPNAGKSSLLNALAGREAAIVTDIAGTTRDVLREHIHIDGMPLHIIDTAGLREASDEVERIGIERAWQEIEQADRVLFMVDGTTTDAVDPAEIWPEFIARLPAKLPITVVRNKADITGETLGMSEVNGHALIRLSARTGEGVDVLRNHLKQSMGFDTNMEGGFLARRRHLQALEQAAEHLQQGKAQLLGAWAGELLAEELRLAQQNLSEITGEFTSDDLLGRIFSSFCIGK
notes: E. coli MnmE, wild-type open reading frame in pET20b, preceded by an N-terminal His-tag and TEV cleavage site; 454 residues (K454 is the C-terminal residue); Homodimer (α2); also called EcMnmE; α2; source: E. coli BL21(DE3), purified (Ni-NTA IMAC, alkaline phosphatase treatment, second Ni-NTA, Superdex200 SEC)
B2: Escherichia coli MnmE K454A (enzyme, E. coli, UniProt P25522 1-454, looked up)
chain: MSDNDTIVAQATPPGRGGVGILRISGFKAREVAETVLGKLPKPRYADYLPFKDADGSVLDQGIALWFPGPNSFTGEDVLELQGHGGPVILDLLLKRILTIPGLRIARPGEFSERAFLNDKLDLAQAEAIADLIDASSEQAARSALNSLQGAFSARVNHLVEALTHLRIYVEAAIDFPDEEIDFLSDGKIEAQLNDVIADLDAVRAEARQGSLLREGMKVVIAGRPNAGKSSLLNALAGREAAIVTDIAGTTRDVLREHIHIDGMPLHIIDTAGLREASDEVERIGIERAWQEIEQADRVLFMVDGTTTDAVDPAEIWPEFIARLPAKLPITVVRNKADITGETLGMSEVNGHALIRLSARTGEGVDVLRNHLKQSMGFDTNMEGGFLARRRHLQALEQAAEHLQQGKAQLLGAWAGELLAEELRLAQQNLSEITGEFTSDDLLGRIFSSFCIGA
notes: E. coli MnmE point variant made by QuikChange from the wild-type open reading frame in pET20b; Variant of m1; source: E. coli BL21(DE3), purified (Ni-NTA IMAC, alkaline phosphatase treatment, second Ni-NTA, Superdex200 SEC)
B3: Escherichia coli MnmE-Δ450–454 (domain or fragment, E. coli, UniProt P25522 1-449, looked up)
chain: MSDNDTIVAQATPPGRGGVGILRISGFKAREVAETVLGKLPKPRYADYLPFKDADGSVLDQGIALWFPGPNSFTGEDVLELQGHGGPVILDLLLKRILTIPGLRIARPGEFSERAFLNDKLDLAQAEAIADLIDASSEQAARSALNSLQGAFSARVNHLVEALTHLRIYVEAAIDFPDEEIDFLSDGKIEAQLNDVIADLDAVRAEARQGSLLREGMKVVIAGRPNAGKSSLLNALAGREAAIVTDIAGTTRDVLREHIHIDGMPLHIIDTAGLREASDEVERIGIERAWQEIEQADRVLFMVDGTTTDAVDPAEIWPEFIARLPAKLPITVVRNKADITGETLGMSEVNGHALIRLSARTGEGVDVLRNHLKQSMGFDTNMEGGFLARRRHLQALEQAAEHLQQGKAQLLGAWAGELLAEELRLAQQNLSEITGEFTSDDLLGRIFSS
notes: E. coli MnmE without the C-terminal conserved 450FCIGK454 motif (deletion of residues 450-454; K454 is the C-terminal residue of MnmE); C-terminal truncation of m1; made from the wild-type open reading frame in pET20b; source: E. coli BL21(DE3), purified (Ni-NTA IMAC, alkaline phosphatase treatment, second Ni-NTA, Superdex200 SEC)
B4: Escherichia coli MnmE-Δ436–454 (domain or fragment, E. coli, UniProt P25522 1-435, looked up)
chain: MSDNDTIVAQATPPGRGGVGILRISGFKAREVAETVLGKLPKPRYADYLPFKDADGSVLDQGIALWFPGPNSFTGEDVLELQGHGGPVILDLLLKRILTIPGLRIARPGEFSERAFLNDKLDLAQAEAIADLIDASSEQAARSALNSLQGAFSARVNHLVEALTHLRIYVEAAIDFPDEEIDFLSDGKIEAQLNDVIADLDAVRAEARQGSLLREGMKVVIAGRPNAGKSSLLNALAGREAAIVTDIAGTTRDVLREHIHIDGMPLHIIDTAGLREASDEVERIGIERAWQEIEQADRVLFMVDGTTTDAVDPAEIWPEFIARLPAKLPITVVRNKADITGETLGMSEVNGHALIRLSARTGEGVDVLRNHLKQSMGFDTNMEGGFLARRRHLQALEQAAEHLQQGKAQLLGAWAGELLAEELRLAQQNLSEITG
notes: E. coli MnmE without the entire C-terminal swivel helix (deletion of residues 436-454; K454 is the C-terminal residue of MnmE); C-terminal truncation of m1; made from the wild-type open reading frame in pET20b; source: E. coli BL21(DE3), purified (Ni-NTA IMAC, alkaline phosphatase treatment, second Ni-NTA, Superdex200 SEC)
B5: Escherichia coli MnmG (enzyme, E. coli)
chain: MFYPDPFDVIIIGGGHAGTEAAMAAARMGQQTLLLTHNIDTLGQMSCNPAIGGIGKGHLVKEVDALGGLMAKAIDQAGIQFRILNASKGPAVRATRAQADRVLYRQAVRTALENQPNLMIFQQAVEDLIVENDRVVGAVTQMGLKFRAKAVVLTVGTFLDGKIHIGLDNYSGGRAGDPPSIPLSRRLRELPLRVGRLKTGTPPRIDARTIDFSVLAQQHGDNPMPVFSFMGNASQHPQQVPCYITHTNEKTHDVIRSNLDRSPMYAGVIEGVGPRYCPSIEDKVMRFADRNQHQIFLEPEGLTSNEIYPNGISTSLPFDVQMQIVRSMQGMENAKIVRPGYAIEYDFFDPRDLKPTLESKFIQGLFFAGQINGTTGYEEAAAQGLLAGLNAARLSADKEGWAPARSQAYLGVLVDDLCTLGTKEPYRMFTSRAEYRLMLREDNADLRLTEIGRELGLVDDERWARFNEKLENIERERQRLKSTWVTPSAEAAAEVNAHLTAPLSREASGEDLLRRPEMTYEKLTTLTPFAPALTDEQAAEQVEIQVKYEGYIARQQDEIEKQLRNENTLLPATLDYRQVSGLSNEVIAKLNDHKPASIGQASRISGVTPAAISILLVWLKKQGMLRRSA
notes: E. coli MnmG in pET14b, preceded by an N-terminal His-tag and TEV cleavage site; domains described over residues 1-629; Homodimer (β2); also called EcMnmG; β2; source: E. coli BL21(DE3), purified (Ni-NTA IMAC, Superdex200 SEC)

How the values were obtained:
[1] = molecular target: the molecule itself; experiment: cryo-EM structure; MnmE–MnmG complex formed with GppNHp, FAD and K+ (20 mM HEPES pH 7.5, 150 mM KCl, 5 mM MgCl2, 2 mM DTT), purified by SEC; α2β2 and α4β2 classes
Escherichia coli MnmG [2] = molecular target: B5; experiment: ITC; MnmE 700 μM in the syringe, MnmG 70 μM in the cell; no ligands; 25°C; 20 mM HEPES pH 7.5, 75 mM NaCl, 75 mM KCl, 5 mM MgCl2, 2 mM β-mercaptoethanol; one set of sites model; details: both partners purified
Escherichia coli MnmG [3] = molecular target: B5; experiment: ITC; MnmE 700 μM in the syringe, MnmG 70 μM in the cell; with 1 mM FAD; 25°C; 20 mM HEPES pH 7.5, 75 mM NaCl, 75 mM KCl, 5 mM MgCl2, 2 mM β-mercaptoethanol; one set of sites model; details: both partners purified
Escherichia coli MnmG [4] = molecular target: B5; experiment: ITC; MnmE 700 μM in the syringe, MnmG 70 μM in the cell; with 1 mM GppNHp; 25°C; 20 mM HEPES pH 7.5, 75 mM NaCl, 75 mM KCl, 5 mM MgCl2, 2 mM β-mercaptoethanol; one set of sites model; details: both partners purified
Escherichia coli MnmG [5] = molecular target: B5; experiment: ITC; wild-type or mutant MnmE 700 μM in the syringe, MnmG 70 μM in the cell; with 1 mM FAD and 1 mM GppNHp; 25°C; 20 mM HEPES pH 7.5, 75 mM NaCl, 75 mM KCl, 5 mM MgCl2, 2 mM β-mercaptoethanol; one set of sites model; details: both partners purified

| Binder | stoichiometry N [1] | Kd (Escherichia coli MnmG [2]) [nM] | stoichiometry N (Escherichia coli MnmG [2]) | Kd (Escherichia coli MnmG [3]) [nM] | stoichiometry N (Escherichia coli MnmG [3]) | Kd (Escherichia coli MnmG [4]) [nM] | stoichiometry N (Escherichia coli MnmG [4]) | Kd (Escherichia coli MnmG [5]) [nM] | stoichiometry N (Escherichia coli MnmG [5]) |
| --- | --- | --- | --- | --- | --- | --- | --- | --- | --- |
| B1 | 2 | 3400 | 0.9 | 800 | 0.8 | 770 | 1.1 | 420 | 0.6 |
| B2 |  |  |  |  |  |  |  | 2200 | 0.5 |
| B3 |  |  |  |  |  |  |  | 1700 | 0.6 |
| B4 |  |  |  |  |  |  |  | 4100 | 0.8 |
| B5 | 2 |  |  |  |  |  |  |  |  |
